Here are results for two molecules from article PMC6776071 (2019).

The target in this assay is thrombin (bovine alpha-thrombin) (bovine). Nature of the assay: SPR.

Bridge positions count the residues as written; N and C are the ends.

B1: mature hirudin-HN protein (Hir) (natural protein)
chain: NRYSVCTETGQNLCLCEGSDLCSLDNHCEIGSNGKNRCVKGEGKPKKPQSNSDLPEEKYEPIPIEDYDK
Turning to B1, the Kd (usually the constant that tells how readily two partners part at equilibrium) came to 64.7 nM.

B2: M-Hir (M-hirudin-HN-His tag) (natural protein)
chain: MNRYSVCTETGQNLCLCEGSDLCSLDNHCEIGSNGKNRCVKGEGKPKKPQSNSDLPEEKYEPIPIEDYDK
modifications: disulfide 7-15, 17-29, 23-39
Consider B2, for which the Kd came to 2970 nM.
